Measured values from patent US20220033439A1 (SEOUL NATIONAL UNIVERSITY R AND DB FOUNDATION, published 2022).

B1: Mycobacterium tuberculosis toxin protein VapC26 (enzyme)
chain: MIIDTSALLAYFDAAEPDHAAVSECIDSSADALVVSPYVVAELDYLVATRVGVDAELAVLRELAGGAWELANCGAAEIEQAARIVTKYQDQRIGIADAANVVLADRYRTRTILTLDRRHFSALRPIGGGRFTVIP
B2: Mycobacterium tuberculosis antitoxin protein VapB26 (other)
chain: MDKTTVYLPDELKAAVKRAARQRGVSEAQVIRESIRAAVGGAKPPPRGGLYAGSEPIARRVDELLAGFGER

What was measured:
[1] = biological target: the molecule itself; assay: crystal structure; VapC26 homodimer
[2] = biological target: B1; assay: size exclusion chromatography with multi-angle light scattering
[3] = biological target: the molecule itself; assay: crystal structure and size exclusion chromatography with MALS; VapB26 homodimer

B1
binding result [1]: binds

B2
binding result [2]: binds | binding result [3]: binds
